Experimental findings from patent US20230374088A1 (GENERAL HOSPITAL, published 2023) are described below.

Positions count from the first letter of the chain named. Numbers in names are those of the source.

What all share (assay): pull-down on anti-FLAG beads, anti-c-myc blot, Expi293F cells
The target of test [1] is T1, c-Myc-Gli2 (418-594aa) ZF2-mut (H493A, R496A) (human, UniProt P10070 418-594).
T1 construct: also called Gli2 ZF-2 (H493A/R496A); not shown: c-myc tag from pCMV-BICEP-4 (MCS2)
T1 sequence (looked up): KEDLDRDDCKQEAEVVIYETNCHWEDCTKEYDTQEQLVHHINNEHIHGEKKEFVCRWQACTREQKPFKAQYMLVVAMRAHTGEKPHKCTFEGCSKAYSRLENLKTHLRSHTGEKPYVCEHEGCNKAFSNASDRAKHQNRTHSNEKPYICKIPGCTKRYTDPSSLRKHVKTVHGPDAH
The source says:
(§1) Immunoprecipitation (IP) using anti-FLAG magnetic beads. Input (cell lysate), FT (flow through), wash and beads samples were immunoblotted (IB) with anti c-Myc antibody to detect Gli2. […] The blots are representative images of a minimum of three repeats. Gli2-ZF mutants are as follows: ZF2-mut (H493A, R496A), ZF3-mut (H503A, R516A, K521A), ZF4-mut (R550A, K552A, R556A). Kif7-CC mutants are as follows: S1-mut (E500A, E501A, E502A, D505A), S2-mut (E511A, E515A), S3-mut1 (E526A, E529A) and S3-mut2 (E530A, R535A).
(§2) To narrow down the residues that participate in binding, we analyzed the model of the Kif7-SCC:Gli2-ZF complex using PDBsum server (De Beer et al., Nucleic acids research, 42, D292-D296, 2014). We performed alanine scanning mutagenesis of the charged residues on Gli2-ZF that came up as part of the binding interface in the PDBsum analysis and analyzed their binding with pull-down assay (FIG. 3D). […] We systematically mutated the residues to alanine and performed the pull-down assay with Gli2-ZF.

For test [2], the target named is T2, c-Myc-Gli2 (418-594aa) ZF3-mut (H503A, R516A, K521A) (human, UniProt P10070 418-594).
T2 construct: also called ZF-3 (H503A/R516A/K521A); not shown: c-myc tag from pCMV-BICEP-4 (MCS2)
T2 sequence (looked up): T1 sequence (looked up) with A76H, A79R, H86A, R99A, K104A
Description: as §1, §2

Another test has as its target T3, c-Myc-Gli2 (418-594aa) (human, UniProt P10070 418-594).
T3 construct: Expressed in Expi293F cells for the pull-down; also called Gli2-ZF (in the pull-down); not shown: c-myc tag from pCMV-BICEP-4 (MCS2), N-terminal by the name
T3 sequence (looked up): T1 sequence (looked up) with A76H, A79R
Description: as §1, §2

B1: FLAG-Kif7-CC (460-600aa) (other)
chain: PDSGIESASVEDQAAQGAGGRKEDEGAQQLLTLQNQVARLEEENRDFLAALEDAMEQYKLQSDRLREQQEEMVELRLRLELVRPGWGGPRLLNGLPPGSFVPRPHTAPLGGAHAHVLGMVPPACLPGDEVGSEQRGEQVTN
notes: Expressed in Expi293F cells for the pull-down; also called Kif7(460-600aa); not shown: FLAG tag from pCMV-BICEP-4 (MCS1), N-terminal by the name
B1: the binding result in test [1] and in test [2] was “no binding” throughout.

B2: FLAG-Kif7-CC (460-600aa) S1-mut (E500A, E501A, E502A, D505A) (other)
chain: B1 chain with E41A, E42A, E43A, D46A
notes: also called Kif7-CC S1; not shown: FLAG tag from pCMV-BICEP-4 (MCS1)
Take B2: the binding result with c-Myc-Gli2 (418-594aa) is reported as “no binding”.
